According to US8987424B2, “CA6 antigen-specific cytotoxic conjugate and methods of using the same” (ImmunoGen, Inc., priority 2003, dated 2015):

B1: DS6-DM1: muDS6 antibody modified with SPP and conjugated to the maytansinoid DM1 (conjugate)
VH: QAYLQQSGAELVRSGASVKMSCKASGYTFTSYNMHWVKQTPGQGLEWIGYIYPGNGATNYNQKFKGKATLTADPSSSTAYMQISSLTSEDSAVYFCARGDSVPFAYWGQGTLVTVSA
VL: QIVLTQSPAIMSASPGEKVTITCSAHSSVSFMHWFQQKPGTSPKLWIYSTSSLASGVPARFGGSGSGTSYSLTISRMEAEDAATYYCQQRSSFPLTFGAGTKLELKR
B2: DS6: murine anti-CA6 monoclonal antibody DS6 (ATCC deposit number PTA-4449) (antibody, V domains shown)
VH: B1 VH
VL: B1 VL

What was measured:
[1] = tested on: OVCAR5 cells; experiment: MTT cell viability assay; assay type: cell-based, human; settings: highest conjugate concentration (32 nM)
Protocol: (§1) In the MTT assay, cells were seeded in 96-well plates at a density of 1000-5000 cells/well. The cells were plated with serial dilutions of either naked muDS6 or muDS6-DM1 immunoconjugate in 200 μl of culture media. The samples were run in triplicate. The cells and antibody/conjugate mixtures were then incubated for 2-7 d, at which time cell viability was assessed by an MTT ([3(4,5-dimethylthiazol-2-yl)-2,5-diphenyl tetrazolium bromide)] assay. MTT (50 μg/well) was added to the culture supernatant and allowed to incubate for 3-4 h at 37° C. The media was removed and the MTT formazan was solubilized in DMSO (175 μl/well). The absorbance at 540-545 nm was measured. […] The wells with the highest concentrations of conjugate contained no viable cells as compared to naked antibody which had no effect (FIGS. 21 and 24).

[2] = tested on: HPAC cells; experiment: MTT cell viability assay; assay type: cell-based, human; settings: highest conjugate concentration (32 nM)
Protocol: as §1

[3] = tested on: BT-20 cells; experiment: MTT cell viability assay; assay type: cell-based, human; settings: highest conjugate concentration (32 nM)
Protocol: as §1

[4] = tested on: HPAC tumor xenografts; experiment: Subcutaneous HPAC xenograft efficacy study; assay type: in vivo, SCID mice
Protocol: OVCAR5 (FIG. 26A and FIG. 26B), TOV-21 G (FIG. 26C and FIG. 26D), HPAC (FIG. 26E and FIG. 26F), and HeLa (FIG. 26G and FIG. 26H) cells were inoculated on day 0, and immunoconjugate treatments were given on day 6 and 13. PBS control animals were euthanized once tumor volumes exceeded 1000 mm^3. The conjugate was given at a dose of 600 μg/kg DM1, corresponding to an antibody concentration 27.7 mg/kg. Tumor volume (FIG. 26A, FIG. 26C, FIG. 26E, and FIG. 26G) and body weight (FIG. 26B, FIG. 26D, FIG. 26F, and FIG. 26H) of the mice were monitored during the course of the study.
muDS6-DM 1 activity was further tested on a panel of subcutaneous xenograft models (see FIG. 26). […] OVCAR5 cells and TOV-21 G are ovarian tumor cell lines; HPAC is a pancreatic tumor cell line; HeLa is a cervical tumor cell line. OVCAR5 and TOV-21G cells have low surface CA6 expression; HeLa cells have an intermediate level of surface CA6 expression; HPAC cells have a high CA6 density of surface expression. TOV-21G and HPAC cells are maytansine sensitive; OVCAR5 and HeLa cells are 2-7-fold less maytansine sensitive.
The 4 cell-lines were grown in vitro, collected, and 1×10^7 cells in a 100 μL of serum free medium were injected under the right shoulder of each mouse (6 mice per model) and allowed to grow for 6 days to an average tumor volume of 57.6±6.7 and 90.2±13.4 mm^3 for the test and control groups respectively of OVCAR5, 147.1±29.6 and 176.2±18.9 mm^3 for the test and control groups respectively of HPAC, 194.3±37.2 and 201.7±71.7 mm^3 for the test and control groups respectively of HeLa, and 96.6±22.8 and 155.6±13.4 mm^3 for the test and control groups respectively of TOV-21G, at which time drug treatment was initiated. For each model three control mice were treated with two weekly doses of PBS and three test mice were treated with two weekly doses of conjugate (600 μg/kg DM1) intravenously. Toxic responses were monitored daily during the treatment and tumor volumes and body weights were monitored throughout the study. […]

[5] = tested on: OVCAR5 IP tumors; experiment: Intraperitoneal OVCAR5 tumor model; assay type: in vivo, SCID mice; settings: 600 μg/kg DM1 weekly for 2 weeks
Protocol: Tumor cells were injected intraperitoneally on day 0, and immunoconjugate treatments were given on day 6 and 13. Animals were euthanized once body weight loss exceeded 20%.
Human ovarian cancer is largely a disease of the peritoneum. OVCAR5 cells grow aggressively as an intraperitoneal (IP) model in SCID mice forming tumor nodules and producing ascites in a manner similar to human disease. […] OVCAR5 cells were grown in vitro, harvested and 1×10^7 cells in 100 μL of serum free medium were injected intraperitoneally. Tumors were allowed to grow for 6 days at which time treatment was initiated. Mice were treated weekly for 2 weeks with either PBS or DS6-DM1 conjugate at a dose of 600 μg/kg DM1 and monitored for weight loss resulting from peritoneal disease. By day 28, the PBS group of mice had lost greater than 20% body weight and were euthanized. The treated group was sacrificed at day 45 after exceeding 20% body weight loss.

[6] = tested on: Caov-3 cells; experiment: MTT cell viability assay; assay type: cell-based, human
Protocol: as §1

[7] = tested on: KB cells; experiment: Flow cytometry binding assay; design: species or system human; settings: KB
Protocol: Cells were maintained in a 37° C., 5% CO2 humidified incubator.
Cells ([…]) were incubated, on ice for 3-4 h, with serially diluted concentrations of the DS6 antibody prepared in FACS buffer (2% goat serum, RPMI) into 96-well plates. The cells were spun down in a table top centrifuge at 1500 rpm for 5 min at 4° C. After removing the media, the wells were then refilled with 150 μl of FACS buffer. The wash step was then repeated. FITC-labeled goat anti-mouse IgG (Jackson Immunoresearch) was diluted 1:100 to FACS buffer and incubated with the cells for 1 h on ice. The plate was covered in foil to prevent photobleaching of the signal. After two washes, the cells were fixed with 1% formaldehyde and analyzed on a flow cytometer.
The affinity of the purified huIgG was compared with muDS6 by flow cytometry. In the first set of experiments direct binding to a CA6-expressing cell line, KB, was measured. […] To confirm that the huDS6 versions retain the affinity of muDS6, competitive binding experiments were conducted. The advantage of this format is that the same detection system is used for both murine and human antibodies; that is biotin-muDS6/streptavidin-DTAF.
The binding was conducted essentially as described for FIG. 20 except that KB cells were used rather than CaOv-3 cells.

[8] = 600 μg/kg DM1, two weekly doses

Row | Molecule | cells still viable [1] | cells still viable [2] | cells still viable [3] | body weight [4, 8] | tumor status at day 61 [4, 8] | tumor regression ([4]; 600 μg/kg DM1 i.v., two weekly doses) | tumor growth delay (in words) [5] | visible signs of toxicity [5] | day of sacrifice after exceeding 20% body weight loss ([5]; PBS group day 28) [days] | effect of naked antibody on cell viability [6] | MMF (average maximum relative mean fluorescence) [7]
1 | B1 | over 50% | over 50% | over 50% | no weight loss was observed | tumor-free | complete tumor regression in all mice | able to delay tumor growth | no visible signs of toxicity | 45 |  | 
2 | B2 |  |  |  |  |  |  |  |  |  | no effect | 119.56
